Data from patent publication US8088892B2, “Inhibitors of proteins from the Rho-GEF family” (Centre National de la Recherche Scientifique (C.N.R.S.), priority 2002, dated 2012).
“Also recorded” adds a separate entry of the source. Like-named read-outs stand apart in the source and are kept apart here.

T1: Dbl (Homo sapiens, UniProt P10911)
T1 construct: made in house
T1 sequence (P10911 495-826): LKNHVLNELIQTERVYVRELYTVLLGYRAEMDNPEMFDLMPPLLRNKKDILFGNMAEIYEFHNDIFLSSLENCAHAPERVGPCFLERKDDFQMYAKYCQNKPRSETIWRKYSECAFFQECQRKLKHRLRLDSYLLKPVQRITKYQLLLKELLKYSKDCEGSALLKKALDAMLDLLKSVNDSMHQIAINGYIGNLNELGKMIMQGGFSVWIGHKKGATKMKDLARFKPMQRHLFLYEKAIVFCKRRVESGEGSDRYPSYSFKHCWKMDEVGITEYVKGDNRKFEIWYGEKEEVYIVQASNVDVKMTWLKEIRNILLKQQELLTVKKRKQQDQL

B1: TRIAPα: aptamer of 154 amino acids: variable region of 42 amino acids inserted into the thioredoxin protein; tested as GST fusion (protein)
chain: MSDKIIHLTDDSFDTDVLKADGAILVDFWAEWCGPAREGADGAICGYNLATLVMLGPSERVFCPLCEPCSSDIYELMGPCKMIAPILDEIADEYQGKLTVAKLNIDQNPGTAPKYGIRGIPTLLLFKNGEVASATKVGALSKGQLKEFLDANLA

Key:
[1] = molecular target: TrioGEFD2 (Homo sapiens, UniProt O75962); assay: In vitro guanine nucleotide exchange (GEF) assay on RhoA; assay type: biochemical; design: using recombinant GST-TrioGEFD2 (a.a. 1848-2298), TrioDH2 (a.a. 1848-2096); made in house; key to in vitro GEF assay (inhibition): +++^2 and +^2 represent respectively a full and a partial (see FIG. 3) inhibitory effect; +++^2 and +^2 represent respectively a full and a partial (see FIG. 3) inhibitory effect; −−^2 represents a lack of inhibitory effect; settings: for Inhibition of TrioGEFD2 exchange activity on RhoA in vitro: 20-fold molar excess (8 μM) inhibitor, 0.4 μM GST-GEFD2, 0.3 μM [3H]GDP-RhoA, 15 min; for IC50: 0.4 μM GST-GEFD2, 0.3 μM RhoA, increasing amounts of GST-TRIAPα, read-out: apparent half-inhibitory concentration (inhibition of TrioGEFD2)
Experimental: For that purpose, aptamers, TrioGEFD2 and RhoA are expressed as GST-fusion proteins. RhoA is loaded with ^3H-GDP, and the release of GDP is followed after addition of GEFD2 in presence or in absence of the selected aptamers (as described in Debant et al., 1996).
A 20-fold molar excess (8 μM) of GST-aptamers TRIAPα, TRIAPβ (another TrioGEFD2 binding aptamer), TRIAPγ (another TrioGEFD2 binding aptamer) or the empty thioredoxine (Trx) were pre-incubated with 0.4 μM GST-GEFD2 (left side of FIG. 2A) or 0.4 μM GST-DH2 (right side of FIG. 2A), as indicated, before adding 0.3 μM of [^3H]GDP loaded GST-RhoA. The exchange activity was monitored by the decrease of [^3H]GDP bound-RhoA after 15 min (see Materials and Methods). The amount of [^3H]GDP bound-RhoA incubated without GEF (first bar on the left) was defined as 100% The values and errors bars were calculated from at least three independent experiments.
0.4 μM GST-GEFD2 were incubated with increasing amounts of GST-TRIAPα (grey bars) or GST (black bars), and the exchange assay was then performed on 0.3 μM RhoA, as described in A.
An in vitro guanine nucleotide exchange (GEF) assay was used to test whether the TrioGEFD2-binding aptamers could inhibit the catalytic activity of TrioGEFD2 towards RhoA. For this purpose, the aptamers TRIAPα, TRIAPβ and TRIAPγ (including the Trx gene) were excised from pEG202 as EcoRI/NotI fragments and cloned into pGEX4T1 EcoRI/NotI. The aptamers were then expressed and purified from bacteria as GST fusion proteins, using standard procedures (Smith and Johnson, 1988). GTPase-GST fusion proteins were prepared, loaded with [^3H]GDP and the guanine nucleotide release assays were performed as described (Debant et al., 1996), using recombinant GST-TrioGEFD2 (a.a. 1848-2298), TrioDH2 (a.a. 1848-2096). For each point, 0.3 μM GTPase was mixed with or without 0.4 μM GEF in presence of non-labeled GTP, and the reaction mix was filtered after 0 min and 15 mm reaction at 25° C. The catalytic activity of TrioGEFD2 was thus measured by the decrease of the GTPase-associated radioactivity. The results are expressed as the ratio “exchange after 15 min over exchange after 0 min” (% bound [^3H]GDP-RhoA). To measure the effect of the aptamers on the exchange activity, a 20-fold molar excess of GST-TRIAPs was pre-incubated with GEFD2 (or GEFD1) for 30 min on ice before the exchange assay was carried out. For each experiment, data were obtained in triplicate.

[2] = molecular target: T1, Dbl; assay: In vitro GEF assay on RhoA; assay type: biochemical; design: key to in vitro GEF assay (inhibition): +++^2 and +^2 represent respectively a full and a partial (see FIG. 3) inhibitory effect; +++^2 and +^2 represent respectively a full and a partial (see FIG. 3) inhibitory effect; −−^2 represents a lack of inhibitory effect
From the text: An in vitro guanine nucleotide exchange (GEF) assay was used to test whether the TrioGEFD2-binding aptamers could inhibit the catalytic activity of TrioGEFD2 towards RhoA. For this purpose, the aptamers TRIAPα, TRIAPβ and TRIAPγ (including the Trx gene) were excised from pEG202 as EcoRI/NotI fragments and cloned into pGEX4T1 EcoRI/NotI. The aptamers were then expressed and purified from bacteria as GST fusion proteins, using standard procedures (Smith and Johnson, 1988). GTPase-GST fusion proteins were prepared, loaded with [^3H]GDP and the guanine nucleotide release assays were performed as described (Debant et al., 1996), using recombinant GST-TrioGEFD2 (a.a. 1848-2298), TrioDH2 (a.a. 1848-2096). For each point, 0.3 μM GTPase was mixed with or without 0.4 μM GEF in presence of non-labeled GTP, and the reaction mix was filtered after 0 min and 15 mm reaction at 25° C. The catalytic activity of TrioGEFD2 was thus measured by the decrease of the GTPase-associated radioactivity. The results are expressed as the ratio “exchange after 15 min over exchange after 0 min” (% bound [^3H]GDP-RhoA). To measure the effect of the aptamers on the exchange activity, a 20-fold molar excess of GST-TRIAPs was pre-incubated with GEFD2 (or GEFD1) for 30 min on ice before the exchange assay was carried out. For each experiment, data were obtained in triplicate. […]

Molecule | Inhibition of TrioGEFD2 exchange activity on RhoA in vitro [1] | in vitro GEF assay (inhibition) ([2]; RhoGEF Dbl) | Effect on Dbl exchange activity ([2]; data not shown) | IC50 ([1]; listed as OST-TRIAPα) [µM] | IC50 [1] [µM] | in vitro GEF assay (inhibition) ([1]; RhoGEF TrioDH2PH2)
AREGADGAICGYNLATLVMLGPSERVFCPLCEPCSSDIYELM [TRIPα, 42-amino acid peptide corresponding to the variable region of TRIAPα] | inhibits TrioGEFD2 activity to a similar level than TRIAPα; also recorded: as potent as TRIAPα | – | – | – | – | –
B1 | potent inhibitor of TrioGEFD2 activity; also recorded: inhibits | −−^2 | not affected | ~4 | 4 | +++^2
